Here are results for one molecule from publication PMC2927781 (2010).

The target in test [1] is T1, PHD_(Pygo1)–HD1_(BCL9) complex (6×His-tagged, PHD linked to HD1) (human, UniProt Q9Y3Y4 340-400; O00512 177-205).
T1 chain: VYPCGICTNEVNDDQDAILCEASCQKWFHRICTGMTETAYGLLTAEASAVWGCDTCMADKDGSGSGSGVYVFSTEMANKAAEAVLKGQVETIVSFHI
Briefly: ITC.

The target in test [2] is T2, PHD_(Pygo2)–HD1_(BCL9) complex (human, UniProt Q9BRQ0 327-387; O00512 177-205).
T2 chain: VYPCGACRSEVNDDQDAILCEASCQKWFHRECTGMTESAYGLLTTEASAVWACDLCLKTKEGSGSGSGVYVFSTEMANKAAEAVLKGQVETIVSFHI
Briefly: ITC.

Where no end group is shown, it is not given here. Me2 = dimethyl

B1: 15-mer H3K4me2 histone tail peptide (histone H3 tail dimethylated at lysine 4) (peptide)
chain: ARTK(Me2)QTARKSTGGKA
Consider B1, for which the Kd in test [1] turned out to be 3.32 µM; in test [2], 2020 nM.
